Key:
Test in all cases: sandwich ELISA, AM14 coated, supernatant 1:10
FHS-60 (RSV strain A2) = FHS-60 (RSV strain A2) (UniProt P03420)
FHS-26 (RSV strain A2) = FHS-26 (RSV strain A2) (UniProt P03420)
FHS-18 (RSV strain A2) = FHS-18 (RSV strain A2) (UniProt P03420)
FHS-47 (RSV strain A2) = FHS-47 (RSV strain A2) (UniProt P03420)
FHS-95 (RSV strain A2) = FHS-95 (RSV strain A2) (UniProt P03420)
FHS-15 (RSV strain A2) = FHS-15 (RSV strain A2) (UniProt P03420)
FHS-35 (RSV strain A2) = FHS-35 (RSV strain A2) (UniProt P03420)
FHS-85 (RSV strain A2) = FHS-85 (RSV strain A2) (UniProt P03420)
FHS-34 (RSV strain A2) = FHS-34 (RSV strain A2) (UniProt P03420)
FHS-32 (RSV strain A2) = FHS-32 (RSV strain A2) (UniProt P03420)
FHS-9 (RSV strain A2) = FHS-9 (RSV strain A2) (UniProt P03420)
FHM-4 (RSV strain A2) = FHM-4 (RSV strain A2) (UniProt P03420)
FHS-61 (RSV strain A2) = FHS-61 (RSV strain A2) (UniProt P03420)
FHM-12 (RSV strain A2) = FHM-12 (RSV strain A2) (UniProt P03420)
FHS-27 (RSV strain A2) = FHS-27 (RSV strain A2) (UniProt P03420)
FHM-7 (RSV strain A2) = FHM-7 (RSV strain A2) (UniProt P03420)
FHS-94 (RSV strain A2) = FHS-94 (RSV strain A2) (UniProt P03420)
FHS-74 (RSV strain A2) = FHS-74 (RSV strain A2) (UniProt P03420)
FHM-1 (RSV strain A2) = FHM-1 (RSV strain A2) (UniProt P03420)
FHM-14 (RSV strain A2) = FHM-14 (RSV strain A2) (UniProt P03420)
FHS-70 (RSV strain A2) = FHS-70 (RSV strain A2) (UniProt P03420)
FHM-2 (RSV strain A2) = FHM-2 (RSV strain A2) (UniProt P03420)
FHM-3 (RSV strain A2) = FHM-3 (RSV strain A2) (UniProt P03420)
FHS-19 (RSV strain A2) = FHS-19 (RSV strain A2) (UniProt P03420)
FHS-56 (RSV strain A2) = FHS-56 (RSV strain A2) (UniProt P03420)
FHS-71 (RSV strain A2) = FHS-71 (RSV strain A2) (UniProt P03420)
FHM-6 (RSV strain A2) = FHM-6 (RSV strain A2) (UniProt P03420)
FHS-53 (RSV strain A2) = FHS-53 (RSV strain A2) (UniProt P03420)
FHM-23 (RSV strain A2) = FHM-23 (RSV strain A2) (UniProt P03420)
FHS-46 (RSV strain A2) = FHS-46 (RSV strain A2) (UniProt P03420)
FHS-55 (RSV strain A2) = FHS-55 (RSV strain A2) (UniProt P03420)
FHS-38 (RSV strain A2) = FHS-38 (RSV strain A2) (UniProt P03420)
FHM-25 (RSV strain A2) = FHM-25 (RSV strain A2) (UniProt P03420)
FHM-21 (RSV strain A2) = FHM-21 (RSV strain A2) (UniProt P03420)
FHS-84 (RSV strain A2) = FHS-84 (RSV strain A2) (UniProt P03420)
FHS-10 (RSV strain A2) = FHS-10 (RSV strain A2) (UniProt P03420)
FHS-75 (RSV strain A2) = FHS-75 (RSV strain A2) (UniProt P03420)
FHS-58 (RSV strain A2) = FHS-58 (RSV strain A2) (UniProt P03420)
FHS-52 (RSV strain A2) = FHS-52 (RSV strain A2) (UniProt P03420)
FHS-41 (RSV strain A2) = FHS-41 (RSV strain A2) (UniProt P03420)
FHS-93 (RSV strain A2) = FHS-93 (RSV strain A2) (UniProt P03420)

AM14 monoclonal antibody
OD value (FHS-60 (RSV strain A2)): 0.007 OD | OD value (FHS-26 (RSV strain A2)): 0.841 OD | OD value (FHS-18 (RSV strain A2)): 0.009 OD | OD value (FHS-47 (RSV strain A2)): 1.32 OD | OD value (FHS-95 (RSV strain A2)): 0.007 OD | OD value (FHS-15 (RSV strain A2)): 0.091 OD | OD value (FHS-35 (RSV strain A2)): 0.007 OD | OD value (FHS-85 (RSV strain A2)): 0.008 OD | OD value (FHS-34 (RSV strain A2)): 0.007 OD | OD value (FHS-32 (RSV strain A2)): 0.008 OD | OD value (FHS-9 (RSV strain A2)): 0.009 OD | OD value (FHM-4 (RSV strain A2)): 0.028 OD | OD value (FHS-61 (RSV strain A2)): 0.008 OD | OD value (FHM-12 (RSV strain A2)): 2.13 OD | OD value (FHS-27 (RSV strain A2)): 0.005 OD | OD value (FHM-7 (RSV strain A2)): 0.007 OD | OD value (FHS-94 (RSV strain A2)): 0.009 OD | OD value (FHS-74 (RSV strain A2)): 0.023 OD | OD value (FHM-1 (RSV strain A2)): 2.29 OD | OD value (FHM-14 (RSV strain A2)): 0.008 OD | OD value (FHS-70 (RSV strain A2)): 0.007 OD | OD value (FHM-2 (RSV strain A2)): 2.23 OD | OD value (FHM-3 (RSV strain A2)): 0.07 OD | OD value (FHS-19 (RSV strain A2)): 0.007 OD | OD value (FHS-56 (RSV strain A2)): 0.009 OD | OD value (FHS-71 (RSV strain A2)): 0.012 OD | OD value (FHM-6 (RSV strain A2)): 0.005 OD | OD value (FHS-53 (RSV strain A2)): 0.008 OD | OD value (FHM-23 (RSV strain A2)): 1.89 OD | OD value (FHS-46 (RSV strain A2)): 2.41 OD | OD value (FHS-55 (RSV strain A2)): 0.009 OD | OD value (FHS-38 (RSV strain A2)): 0.008 OD | OD value (FHM-25 (RSV strain A2)): 2.42 OD | OD value (FHM-21 (RSV strain A2)): 0.007 OD | OD value (FHS-84 (RSV strain A2)): 1.01 OD | OD value (FHS-10 (RSV strain A2)): 0.069 OD | OD value (FHS-75 (RSV strain A2)): 0.028 OD | OD value (FHS-58 (RSV strain A2)): 0.011 OD | OD value (FHS-52 (RSV strain A2)): 0.007 OD | OD value (FHS-41 (RSV strain A2)): 0.006 OD | OD value (FHS-93 (RSV strain A2)): 0.009 OD

From US20260117202A1
